Legend:
Arp2/3 complex = assay: Actin polymerisation on beads coated with WASP protein, in lysed cell supernatants; assay type: biochemical; conditions: substance added to lysed mammal, in particular human
Description: a stage of placing, in a medium containing actin and the elements necessary for actin polymerisation i.e. the Arp2/3 complex, in particular in an extract of lysed cell supernatant, the tested molecule with a reagent comprising WASP family proteins in the eucaryotic cells, in particular human or of other mammal cells, or insect cells, or from micro-organisms such as yeasts, or peptide fragments of these WASP family proteins, said peptide fragments having the property of the WASP family proteins to polymerise the actin by inducing cellular motility, or peptide sequences derived from WASP family proteins or the abovementioned peptide fragments, in particular by substitution of one or more amino acids of these fragments, said derived sequences having the abovementioned property of the WASP family proteins and said fragments of the latter, said abovementioned WASP family proteins, or peptide fragments or derived sequences, being bound or adsorbed to a support as defined above,
followed by the optional detection of an inhibition or an activation of the process of actin polymerisation at the surface of said reagent, in comparison to a control, corresponding respectively to an effect of inhibition or of stimulation of the tested molecule on the formation of the actin cytoskeleton by the mechanism involving the bonding of said WASP family proteins, or abovementioned peptide fragments or derived sequences, with the Arp2/3 complex.

[1] = system: proteins of the Ena/VASP family; assay: Actin polymerisation on beads coated with proteins binding to the Ena/VASP family (beads of the invention), in lysed cell supernatants; assay type: biochemical, mammal, in particular human; conditions: for inhibition of actin polymerisation detected using the beads of the invention: substance added to lysed mammal, in particular human, cell supernatants
Description: a stage of placing the tested molecule in the presence of a reagent as defined above, in a medium containing actin and the elements necessary for actin polymerisation defined above, in particular in an extract of lysed cell supernatant,
followed by the optional detection of an inhibition or an activation of the process of actin polymerisation at the surface of said reagent, in comparison to a control (namely a medium as described above not containing the tested molecule, and in which is found said reagent), corresponding respectively to an effect of inhibition or stimulation of the tested molecule on the formation of the actin cytoskeleton by the mechanism involving the abovementioned protein or peptide bond or their derived sequence, with a protein of the Ena protein/VASP family.
The abovementioned medium in which the tested molecule is placed in the presence of said reagent, advantageously contains a compound labelled in particular by fluorescence, making it possible to detect actin polymerisation on said reagent. By way of illustration, the abovementioned labelled compound is a fluorescent derivative of actin, such as actin-rhodamine (commercially available), making it possible to visualize actin polymerisation by epifluorescence microscopy.
The GST-ActA-Pro protein was adsorbed onto 500 nm latex beads (Polyscience Inc, 400 Valley Road, Warrington Pa., USA) according to the manufacturers' instructions.

[2] = system: mitochondria carrying zyxin at their surface; assay: Actin polymerisation in mitochondria carrying zyxin at their surface; assay type: cell-based
Description: Furthermore, as a number of processes dependant on actin polymerisation require the recruitment and activation of the Arp2/3 complex, the Inventors have searched for the presence of this complex in the mitochondria carrying zyxin at their surface.

Molecule | inhibition of actin polymerisation detected using beads coated with WASP protein (Arp2/3 complex) | inhibition of actin polymerisation detected using the beads of the invention [1] | inhibition of actin polymerisation in the mitochondria [2] | nucleation of actin by the coated beads ([1]; protein adsorbed onto 500 nm latex beads, added to extracts prepared from cells)
ActA-Pro: ActA protein fragment of Listeria monocytogenes, 350 amino acids, positions 235 to 584 of SEQ ID NO 2 | not inhibited | inhibited | – | –
WASP: WASP protein, expressed from the WAS gene mutated in Wiskott-Aldrich Syndrome; interacts with the Arp2/3 complex (protein, UniProt P42768 2-502, looked up) Actin nucleation-promoting …: SGGPMGGRPGGRGAPAVQQNIPSTLLQDHENQRLFEMLGRKCLTLATAVVQLYLALPPGAEHWTKEHCGAVCFVKDNPQKSYFIRLYGLQAGRLLWEQELYSQLVYSTPTPFFHTFAGDDCQAGLNFADEDEAQAFRALVQEKIQKRNQRQSGDRRQLPPPPTPANEERRGGLPPLPLHPGGDQGGPPVGPLSLGLATVDIQNPDITSSRYRGLPAPGPSPADKKRSGKKKISKADIGAPSGFKHVSHVGWDPQNGFDVNNLDPDLRSLFSRAGISEAQLTDAETSKLIYDFIEDQGGLEAVRQEMRRQEPLPPPPPPSRGGNQLPRPPIVGGNKGRSGPLPPVPLGIAPPPPTPRGPPPPGRGGPPPPPPPATGRSGPLPPPPPGAGGPPMPPPPPPPPPPPSSGNGPAPPPLPPALVPAGGLAPGGGRGALLDQIRQGIQLNKTPGAPESSALQPPPQSSEGLVGALMHVMQKRSRAIHSSDEGEDQAGDEDEDDEWDD | inhibited | not inhibited | does not inhibit | –
N-WASP: N-WASP protein, approximately 45% sequence identity with human WASP protein; interacts with the Arp2/3 complex (protein, UniProt O00401 2-505, looked up) Actin nucleation-promoting …: SSVQQQPPPPRRVTNVGSLLLTPQENESLFTFLGKKCVTMSSAVVQLYAADRNCMWSKKCSGVACLVKDNPQRSYFLRIFDIKDGKLLWEQELYNNFVYNSPRGYFHTFAGDTCQVALNFANEEEAKKFRKAVTDLLGRRQRKSEKRRDPPNGPNLPMATVDIKNPEITTNRFYGPQVNNISHTKEKKKGKAKKKRLTKADIGTPSNFQHIGHVGWDPNTGFDLNNLDPELKNLFDMCGISEAQLKDRETSKVIYDFIEKTGGVEAVKNELRRQAPPPPPPSRGGPPPPPPPPHNSGPPPPPARGRGAPPPPPSRAPTAAPPPPPPSRPSVAVPPPPPNRMYPPPPPALPSSAPSGPPPPPPSVLGVGPVAPPPPPPPPPPPGPPPPPGLPSDGDHQVPTTAGNKAALLDQIREGAQLKKVEQNSRPVSCSGRDALLDQIRQGIQLKSVADGQESTPPTPAPTSGIVGALMEVMQKRSKAIHSSDEDEDEDDEEDFEDDDEWED | inhibited | not inhibited | – | –
GST-ActA-Pro: recombinant protein composed of GST (237 residues) and proline rich and carboxy-terminal central parts of ActA (350 residues, SEQ ID NO 6) (protein) DFPPPPTDEELRLALPETPMLLGFNAPATSEPSSFEFPPPPTDEELRLALPETPMLLGFNAPATSEPSSFEFPPPPTEDELEIIRETASSLDSSFTRGDLASLRNAINRHSQNFSDFPPIPTEEELNGRGGRPTSEEFSSLNSGDFTDDENSETTEEEIDRLADLRDRGTGKHSRNAGFLPLNPFASSPVPSLSPKVSKISAPALISDITKKTPFKNPSQPLNVFNKKTTTKTVTKKPTPVKTAPKLAELPATKPQETVLRENKTPFIEKQAETNKQSINMPSLPVIQKEATESDKEEMKPQTEEKMVEESESANNANGKNRSAGIEEGKLIAKSAEDEKAKEEPGNHTT | – | – | – | capable of nucleating the actin

Reference: US20030170726A1, “Peptides sequences comprising one or several protein binding units of the ena/vasp family and the uses thereof” (priority 2000, published 2003)
